The values below come from doi:10.1101/2022.09.01.506260 (bioRxiv, 2022).

Square brackets hold non-standard residues; d marks the D form. pT = C[C@@H](OP(=O)(O)O)[C@H](N)C(=O)O; pS = N[C@@H](COP(=O)(O)O)C(=O)O

B1: CrkII NSH3 domain (CrkII^NSH3) (domain or fragment)
chain: AEYVRALFDFNGNDEEDLPFKKGDILRIRDKPEEQWWNAEDSEGKRGMIPVPYVEKYR
B4: PEAK3^tandem peptide, non-phosphorylated (residues 54-74) (peptide)
peptide: Ac-PLPPPLPKKILTRTQSLPTRR-NH2

Data set [1] addresses B4. As to the kind of experiment: ITC. A general note: In ITC the heat of successive injections is recorded.
Another data set addresses T1, human 14-3-3ε (human, UniProt P62258-1 1-255).
T1 sequence: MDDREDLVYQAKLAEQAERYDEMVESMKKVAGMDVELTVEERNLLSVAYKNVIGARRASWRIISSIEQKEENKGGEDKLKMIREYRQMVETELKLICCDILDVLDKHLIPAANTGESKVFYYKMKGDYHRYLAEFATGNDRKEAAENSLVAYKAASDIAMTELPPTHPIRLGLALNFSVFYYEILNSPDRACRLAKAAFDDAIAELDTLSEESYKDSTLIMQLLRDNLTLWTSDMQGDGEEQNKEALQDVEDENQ
As to the kind of experiment: SPR. (SPR reads the build-up and loss of mass on a sensor chip optically.)

The target of data set [2] is B1. As to the kind of experiment: SPR.
Data set [3] concerns the molecule itself. The data set is described as follows: SEC. For orientation: SEC sorts molecules by how far they enter the pores of the column.
Data set [4] concerns the molecule itself. As to the kind of experiment: SEC. This is another data set of the same source.
The data set “SEC-MALS” concerns the molecule itself. As to the kind of experiment: SEC-MALS.

On to B1, for which the “KD after pre-saturating the peptide with 14-3-3ɣ” value in data set [1] turned out to be 700 nM.
In the case of Ac-PPPLPKKMIIRAN[pT]EPISKD-NH2 [PEAK1^tandem-pT1165 phosphopeptide (residues 1152-1171)], in the data set with human 14-3-3ε, the binding result was “binds”.
Consider Ac-PLPPPLPKKILTRTQ[pS]LPTRR-NH2 [PEAK3^tandem-pS69 phosphopeptide (residues 54-74)], for which the binding result with human 14-3-3ε is “binds”.
With Ac-PLPPPLPKKILTR-NH2 [PEAK3 54-66 proline-rich motif peptide], in data set [2], the binding result is given as “binds”.
As for Ac-PPPLPQKKIVSRAA[pS]SPDGF-NH2 [PEAK2^tandem-pS826 phosphopeptide (residues 812-831)], the binding result with human 14-3-3ε is “binds”.

B2: PEAK1^IDR1 (N-terminally truncated PEAK1, residues 1082-1746) (domain or fragment)
chain: LPELEREDGKEDISDPMDPNPCSATYSNLGQSRAAMIPPKQPRQPKGAVDDAIAFGGKTDQEAPNASQPTPPPLPKKMIIRANTEPISKDLQKSMESSLCVMANPTYDIDPNWDASSAGSSISYELKGLDIESYDSLERPLRKERPVPSAANSISSLTTLSIKDRFSNSMESLSSRRGPSCRQGRGIQKPQRQALYRGLENREEVVGKIRSLHTDALKKLAVKCEDLFMAGQKDQLRFGVDSWSDFRLTSDKPCCEAGDAVYYTASYAKDPLNNYAVKICKSKAKESQQYYHSLAVRQSLAVHFNIQQDCGHFLAEVPNRLLPWEDPDDPEKDEDDMEETEEDAKGETDGKNPKPCSEAASSQKENQGVMSKKQRSHVVVITREVPCLTVADFVRDSLAQHGKSPDLYERQVCLLLLQLCSGLEHLKPYHVTHCDLRLENLLLVHYQPGGTAQGFGPAEPSPTSSYPTRLIVSNFSQAKQKSHLVDPEILRDQSRLAPEIITATQYKKCDEFQTGILIYEMLHLPNPFDENPELKEREYTRADLPRIPFRSPYSRGLQQLASCLLNPNPSERILISDAKGILQCLLWGPREDLFQTFTACPSLVQRNTLLQNWLDIKRTLLMIKFAEKSLDREGGISLEDWLCAQYLAFATTDSLSCIVKILQHR
Broadly, the stoichiometry N is a count of units in the complex or per binding partner. On to B2, for which, in “SEC [3]”, the “stoichiometry N” value stood at 2.
In general, Kd refers to the free concentration of one partner at which half of the binding sites on the other are occupied at equilibrium, for simple one-to-one binding. A low value points to a tighter complex. Molecule Ac-FSPPPPPPKSRHL-NH2 [PEAK2 709-721 proline-rich motif peptide] came in with a Kd in data set [2] of 13000 nM.

B3: CrkII SH2-NSH3 construct lacking the CSH3 domain (CrkII^ΔCSH3) (domain or fragment)
chain: MAGNFDSEERSSWYWGRLSRQEAVALLQGQRHGVFLVRDSSTSPGDYVLSVSENSRVSHYIINSSGPRPPVPPSPAQPPPGVSPSRLRIGDQEFDSLPALLEFYKIHYLDTTTLIEPVSRSRQGSGVILRQEEAEYVRALFDFNGNDEEDLPFKKGDILRIRDKPEEQWWNAEDSEGKRGMIPVPYVEKYRPASASVSALIGGNQEGSHPQPLGGPEPGPYAQPSVNT
Consider B3, for which, in the data set “SEC [4]”, the “stoichiometry N” value worked out at 2.
For the molecule Ac-QPPPLPQKKIVSR-NH2 [PEAK2 809-821 proline-rich motif peptide], the binding result in data set [2] was “binds”.
In data set [2], B4 showed a Kd of 600 nM.

B5: PEAK2^IDR1 (N-terminally truncated PEAK2, residues 802-1406) (domain or fragment)
chain: EDVSPSGPQQPPPLPQKKIVSRAASSPDGFFWTQGSPKPGTASPKLNLSHSETNVHDESHFSYSLSPGNRHHPVFSSSDPLEKAFKGSGHWLPAAGLAGNRGGCGSPGLQCKGAPSASSSQLSVSSQASTGSTQLQLHGLLSNISSKEGTYAKLGGLYTQSLARLVAKCEDLFMGGQKKELHFNENNWSLFKLTCNKPCCDSGDAIYYCATCSEDPGSTYAVKICKAPEPKTVSYCSPSVPVHFNIQQDCGHFVASVPSSMLSSPDAPKDPVPALPTHPPAQEQDCVVVITREVPHQTASDFVRDSAASHQAEPEAYERRVCFLLLQLCNGLEHLKEHGIIHRDLCLENLLLVHCTLQAGPGPAPAPAPAPAPAAAAPPCSSAAPPAGGTLSPAAGPASPEGPREKQLPRLIISNFLKAKQKPGGTPNLQQKKSQARLAPEIVSASQYRKFDEFQTGILIYELLHQPNPFEVRAQLRERDYRQEDLPPLPALSLYSPGLQQLAHLLLEADPIKRIRIGEAKRVLQCLLWGPRRELVQQPGTSEEALCGTLHNWIDMKRALMMMKFAEKAVDRRRGVELEDWLCCQYLASAEPGALLQSLKLLQLL
modifications: phosphorylation of the tandem site 14-3-3 motif (RAASSP, first S of SS underlined) found by proteomic analysis
As for B5, the “stoichiometry N” value in “SEC [3]” came to 2.

B6: full length recombinant PEAK3 (PEAK3^FL) from insect cells (natural protein)
chain: MSSPEPPTEPPEPDNPTWSTQPTYSNLGQIRAHLLPSKACRLRTPGSLSTNPEPLPPPLPKKILTRTQSLPTRRTLHPSSIQVQPPRRPFLGSHSVDKSQAAVGPACLPAELTFGPADAPLGLSLRDLHSPEAVHTALAARQLQGLRTIYARLRARLMGGHPGPCHPGHSFRLLDSSPCAESGDALYYRVVRAHEDAWHILVAKVPKPGADVPHPWGLELQASLSPHFNLQGLCGLVPEGTLPGAPWRGAVALAAEVPERTVAQWLAEACTQPPEEFVWAVALLLLQLSAALKFLEAWGAALVELRPENLLLVAPRGCATTGPPRLLLTDFGRVCLQPPGPPGSPGPHAPQLGSLLRALLSLAAPSTTPLAAGLELLAAQLTRLRPSASRTRGALQALLWGPGPELRGRGAPLGPWLRALGPWLRVRRGLLVLRLAERAAGGEAPSLEDWLCCEYLAEATESSMGQALALLWD
modifications: phosphoserine at 69 (pS69)
Consider B6, for which the “stoichiometry N” value in “SEC-MALS” is 2.
Take Ac-PTPPPLPKKMIIR-NH2 [PEAK1 1150-1162 proline-rich motif peptide]: in data set [2], the binding result is listed as “binds”.

B7: CrkII SH2 domain (CrkII^SH2) (domain or fragment)
chain: DSEERSSWYWGRLSRQEAVALLQGQRHGVFLVRDSSTSPGDYVLSVSENSRVSHYIINSSGPRPPVPPSPAQPPPGVSPSRLRIGDQEFDSLPALLEFYKIHYLDTTTLIEPVSR
With B7, the “stoichiometry N” value in the data set “SEC [4]” was 2.
